In article PMC7127797 (Virus Research, 2004):

Target: SARS-CoV nucleocapsid (N) protein, full length, in the pM vector (pM-N) (SARS-CoV, UniProt P59595 1-422)
Assay: two-hybrid

SARS-CoV nucleocapsid (N) protein, full length, in the pM vector (pM-N), sequence (P59595 whole entry): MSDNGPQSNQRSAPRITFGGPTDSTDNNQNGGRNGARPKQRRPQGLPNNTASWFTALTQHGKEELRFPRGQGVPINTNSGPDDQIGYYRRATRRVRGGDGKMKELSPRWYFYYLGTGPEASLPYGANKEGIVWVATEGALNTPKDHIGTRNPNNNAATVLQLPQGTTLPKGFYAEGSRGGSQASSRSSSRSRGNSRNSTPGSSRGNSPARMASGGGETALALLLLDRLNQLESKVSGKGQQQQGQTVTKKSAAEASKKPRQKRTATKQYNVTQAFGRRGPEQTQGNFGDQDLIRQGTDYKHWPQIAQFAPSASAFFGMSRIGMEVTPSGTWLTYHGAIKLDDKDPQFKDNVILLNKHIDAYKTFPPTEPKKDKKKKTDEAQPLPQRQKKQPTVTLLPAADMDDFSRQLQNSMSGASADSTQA

B1: SARS-CoV membrane (M) protein in the pVP16 vector (pVP16-M) (natural protein)
chain: MADNGTITVEELKQLLEQWNLVIGFLFLAWIMLLQFAYSNRNRFLYIIKLVFLWLLWPVTLACFVLAAVYRINWVTGGIAIAMACIVGLMWLSYFVASFRLFARTRSMWSFNPETNILLNVPLRGTIVTRPLMESELVIGAVIIRGHLRMAGHSLGRCDIKDLPKEITVATSRTLSYYKLGASQRVGTDSGFAAYNRYRIGNYKLNTDHAGSNDNIALLVQ
- fold chemiluminescence (SEAP) over controls: > 5 fold
